According to article PMC4240654:

What was measured:
[1] = target: SC rFVIIIFc (single chain recombinant factor VIII Fc fusion protein) (human)
[2] = target: BDD rFVIII (recombinant B-domain-deleted factor VIII, ReFacto / Xyntha) (UniProt P00451)
[3] = target: SC rFVIIIFc R1645A/R1648A (human)
[4] = target: rFVIIIFc (recombinant factor VIII Fc fusion protein) (human) (UniProt P00451)

Apparent K D (FIXa-FVIIIa affinity), FXa generation assay on synthetic phospholipids, thrombin-activated SC rFVIIIFc [1]: 4.1 nM
Apparent K D (FIXa-FVIIIa affinity), FXa generation assay on synthetic phospholipids, thrombin-activated BDD rFVIII (ReFacto) [2]: 4.5 nM
Apparent K D (FIXa-FVIIIa affinity), FXa generation assay on synthetic phospholipids, thrombin-activated SC rFVIIIFc R1645A/R1648A [3]: 3.8 nM
Apparent K D (FIXa-FVIIIa affinity), FXa generation assay on synthetic phospholipids, thrombin-activated rFVIIIFc [4]: 5.5 nM
Substance: FIXa (activated factor IX) (enzyme)
